We go through two molecules from article PMC5381515 (Structure (London, England : 1993), 2017).

By stoichiometry N is commonly meant a count of units in the complex or per binding partner.

Data set [1] has as its target truncated human βB2-crystallin (14–194) (human). Kind of data set: SEC-MALS. In general terms: Size exclusion chromatography separates by hydrodynamic size, large species first.
The data set “SEC-MALS” concerns the molecule itself. Kind of data set: SEC-MALS.

Consider “truncated human βB2-crystallin (14–194) (domain or fragment)”, for which the stoichiometry N in data set [1] was determined as 2.

B1: full-length human βB2-crystallin (natural protein, UniProt P43320 1-205, looked up)
chain: MASDHQTQAGKPQSLNPKIIIFEQENFQGHSHELNGPCPNLKETGVEKAGSVLVQAGPWVGYEQANCKGEQFVFEKGEYPRWDSWTSSRRTDSLSSLRPIKVDSQEHKIILYENPNFTGKKMEIIDDDVPSFHAHGYQEKVSSVRVQSGTWVGYQYPGYRGLQYLLEKGDYKDSSDFGAPHPQVQSVRRIRDMQWHQRGAFHPSN
For B1, in “SEC-MALS”, the “stoichiometry N” value turned out to be 2.
